The target in assay [1] is SARS-CoV-2 Omicron BA.5 S蛋白 (病毒颗粒上) (SARS-CoV-2). As to the kind of experiment: cell-based or functional assay.
Assay [2] deals with SARS-CoV-2 Omicron(BA.2) S蛋白 (病毒颗粒上) (SARS-CoV-2). As to the kind of experiment: cell-based or functional assay.

Consider LY-CoV1404(bebtelovimab) (antibody), for which the IC 50 (ng/mL), live virus neutralisation, FFA on Vero cells in assay [1] worked out at 7.99 ng/mL; in assay [2], 11.2 ng/mL.

For the origin of these results see patent CN117736314A.
